Assay results reported in the supplement of paper PMC12042874.
± gives the uncertainty stated by the source.

What was measured:
[1] = amyloid nucleation score (Sup35N fusion, yeast selection) (log enrichment); library NNK2; higher = more nucleation; inactive = no reads after selection
How it was run: (§1)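 The nucleation score equals the log enrichment of output over input reads from DiMSum, centred on the mode score of non-aggregating sequences. It was computed only for sequences with 100 or more input reads. The reads came from Illumina sequencing of plasmid inserts from psi-negative yeast expressing Sup35N fused to peptides of 20 random codons, induced with 100 μM copper sulfate for 24 hours and grown 7 days at 30°C without adenine and uracil.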

[2] = amyloid nucleation score (Sup35N fusion, yeast selection) (log enrichment); library NNK3; higher = more nucleation; inactive = no reads after selection
How it was run: as §1

Substance | amyloid nucleation score [1] | amyloid nucleation score [2]
RLFRFPNVLHDLICNMYICA | 6.024 ± 0.049 | 
VLNGNLSFLSAVWFGKM | 6.729 ± 0.053 | 
QKLIRWCVKLG | 4.24 ± 0.062 | 
GKPTFFMG | 0.6 ± 0.74 | 
GSPIESGVFNANLWPYDAYG | -0.216 ± 0.41 | 
NMKSWGSVV | -0.145 ± 0.79 | 
WTFLIIIWYLDIVV | -1.76 ± 0.48 | 
WTQGFYTFSDHAPLVIILLE | inactive | 
WGDIDF | -0.385 ± 0.64 | 
LISATPQSSFHHFEMNSGSH | 0.275 ± 0.23 | 
FHCNPIS | -0.277 ± 1.1 | 
NMVLWWPIMYHLAWRLGHDV | -0.137 ± 0.38 | 
PRQHYSNRGFCFSFILGVGM | -0.327 ± 0.34 | 
FRNPHYASHGQYHYRFNMRY | inactive | 
VRYTVTRTRGRYMVKCCENV | 0.108 ± 0.2 | 
NVWNLQLYPTATCAKYNGAV | 4.13 ± 0.045 | 
CFSKMFNV | -1.03 ± 0.53 | 
TMYIWRL | 6.58 ± 0.039 | 
YVRRVASGAFCMKFRSTIRR | 1.98 ± 0.084 | 
SDCRWNCVSMEWIDPTHEDK | -0.518 ± 0.2 | 
GDTPGSLYCNLISEGAI | 0.119 ± 0.76 | 
GLLGWMGAYGANPCYPTTLF | 0.515 ± 0.8 | 
CRITNSNSL | -0.448 ± 0.28 | 
GICKALARYYFSIYDWQVTE | 0.049 ± 1.1 | 
YQNIFLRTAALRAGSAD | 0.765 ± 0.24 | 
VNMYSWVKVCWEILYTDRAG | -0.906 ± 0.41 | 

Substance | amyloid nucleation score [1] | amyloid nucleation score [2]
SLYLRSRSRISFMGVGQKEL | 3.28 ± 0.11 | 
TVRVST | -0.004 ± 0.36 | 
NLECLYKLFPDFASLIRLCV | 0.185 ± 0.8 | 
PQSWCFFPNFDKGLVLVRRQ | 0.801 ± 0.82 | 
GMTVNYRRMVQNQRMFGPGI | -0.42 ± 0.37 | 
VNSKNYV | -0.075 ± 0.39 | 
LVKTFYKKWIVREREFWILR | -0.176 ± 1.1 | 
CFGIILVQGYMHA | 3.6 ± 0.052 | 
FFLSRFLV | -0.27 ± 0.79 | 
GLYRGTLVYKTYVLGNNKPL | -1.33 ± 1.1 | 
SQSKNDQ | 0.257 ± 0.34 | 
CLAISWEGWSNSFGRYVVGW | 1.86 ± 0.1 | 
VRYDCYMPDMCFSRDHCWFE | 0.079 ± 0.55 | 
AGGWVFFQGESSSLSNTSGS | inactive | 
TVMLCSMISYKAVLVTYVGG | 1.87 ± 0.13 | 
NSYVKVHSIVG | inactive | 
MLSRNNCNALWYSIFS | -1.5 ± 1 | 
EFAELSSRQRFWHMFV | 1.04 ± 0.34 | 
EILLR | 0.269 ± 0.8 | 
RCVTERFPDM | 0.408 ± 0.5 | 
FYMTYWISPMVIQWVFTDYA | 5.571 ± 0.034 | 
VWVWCFR | 8.331 ± 0.042 | 
TCIGHFSNSQYN | inactive | 
NYRYLLFTSAVDRLQA | -0.117 ± 0.21 | 
VNGVSMMHKIVLVNR | 0.058 ± 1 | 
SLLSPHPLD | 0.203 ± 0.63 | 

Substance | amyloid nucleation score [1] | amyloid nucleation score [2]
GETVHREYLAGWMALSSRRR | 2.47 ± 0.094 | 
FEGQA | -1.8 ± 0.54 | 
FYSELKLNGMH | -2.04 ± 0.62 | 
ANTWVKHTLCVGRLQGDWGI | -0.029 ± 0.42 | 
TWRLKVVGQRQTFSKFTGLG | -0.133 ± 0.35 | 
VNDCYIILISIQALKGPICF | 0.465 ± 0.8 | 
RWYRRCLYT | 0.162 ± 0.37 | 
FFLNVFDIMRILLYN | inactive | 
LFWHLHSNFIADVLLNVRLC | 1.13 ± 0.53 | 
MVYELRRFRCLFITVSGVDS | inactive | 
IVTINGNN | -0.51 ± 0.44 | 
FYFEMVTSD | inactive | 
RVQVPLGRAGTRISRSGKIW | 0.805 ± 0.43 | 
VLGYPKTSTVHALPHTTMLP | 0.943 ± 0.53 | 
LGDLFYYFTVRK | 0.389 ± 0.66 | 
RCQTFLGKETPSFYRKIVKF | -1.02 ± 0.55 | 
KERNRRAEAGSYNYVGVWVT | 0.951 ± 0.81 | 
TCCRLILYGILINNLRAWSH | 4.01 ± 0.073 | 
WGNGLSFTAACLLVLLKRNS | 2.2 ± 0.16 | 
MPGQFHFVMNFRINRNYIRS | 5.92 ± 0.067 | 
KGLASKAHSIGLCT | 1.01 ± 0.25 | 
EFVISKNSVPSPCRCW | 0.382 ± 0.8 | 
FLTLATSTCGPACVW | 6.99 ± 0.07 | 
EQRGLASCLTIHHSRWCYTK | 0.025 ± 0.33 | 
ICQCPVNTANTQLGVGTRLK | 0.114 ± 0.5 | 
GSMVLPIICNKIAYRSCSTI | -0.828 ± 0.56 | 

Substance | amyloid nucleation score [1] | amyloid nucleation score [2]
STWDESWLHVLRWREFATLQ | 1.11 ± 0.22 | 
ENDMLTYYSLLFYWIKIVSY | inactive | 
ACQYLGLETPKWCGINRWGL | 0.324 ± 0.26 | 
SSFFLGLPPIREIGPWTTQR | 0.168 ± 0.27 | 
YGIHTFSRYGVIWSCVSV | -0.64 ± 0.49 | 
PVGFDHNF | -0.451 ± 0.56 | 
IVKPSRKLKTQGCMKFNAWL | -0.284 ± 0.61 | 
SAIDWDFQTIFLLSEFQYGF | -1.44 ± 1.1 | 
LSGDNCPRV | -0.342 ± 0.49 | 
GEDCWRPPVR | 0.559 ± 0.5 | 
MYKVPTCPMFMVDNYYKLLN | inactive | 
FSACFGCFVLAKSNHY | 0.955 ± 0.25 | 
EACLNGAA | 0.638 ± 0.18 | 
RASANYRSSYFERSPDVVRE | 3.63 ± 0.14 | 
TKCVFIVCRLYVFDMVGLYV | -0.573 ± 0.78 | 
CHRLVLQLI | inactive | 
VMVGLALYLKARGSNVDCGL | 3 ± 0.17 | 
IYAGSSLTLWGDRDNKKCDR | -1.44 ± 1 | 
SFPVWPVMYGGNCFSCFSLG | 9.094 ± 0.063 | 
MNLAVGWSHSPDQDLYYPML | -0.339 ± 0.56 | 
NVLWVDSSLFRNLRPTSERE | 0.276 ± 1 | 
DHIVYTLGCWGLRSPFKPLL | 0.026 ± 1.1 | 
NSVDYSWCCNTSRIRMLVNR | 1.2 ± 0.1 | 
WLMCMPILRSCWMSSG | 0.749 ± 0.22 | 
NRMEYV | 1.02 ± 0.23 | 
PATDPWCS | -0.14 ± 0.25 | 

Substance | amyloid nucleation score [1] | amyloid nucleation score [2]
ECLTLFRTGRM | 5.306 ± 0.037 | 
SIFFARLVVEKSMIQLG | 0.21 ± 0.41 | 
DGPWGSMDTRYNSS | 0.479 ± 0.74 | 
QVKFLRDFEGFCMMMKHSSR | -0.395 ± 0.26 | 
SANHMKTDA | 0.436 ± 0.8 | 
GVGEEGARVKWIVCNKCFFP | 2.1 ± 0.12 | 
NMWLCNGSGRHRFWLR | 0.269 ± 0.51 | 
IWLTVVESRFVTGVVGECYW | 0.255 ± 0.45 | 
RQSNPR | 1.53 ± 0.31 | 
RVRSSLVDLASVGSILLTAR | -0.264 ± 0.41 | 
CCVAGLFEWHWY | 8.409 ± 0.081 | 
QKYRVL | -0.611 ± 0.32 | 
SMQCPLAAQTDM | -0.301 ± 0.45 | 
RGINDILRFKS | 0.494 ± 0.44 | 
RCIDSVLIMHITYFAAFGKL | 5.08 ± 0.099 | 
CTCFGRVRLQKSIWGKRLIH | -0.383 ± 0.56 | 
ATVRLHNGFG | 0.127 ± 0.31 | 
NWSFASKVGLQMSKHAVTV | 0.13 ± 0.42 | 
YIPMIKL | -0.794 ± 0.43 | 
FFFVWESNPSIWDGTFTVEV | 0.21 ± 0.46 | 
VSRFDA | 0.306 ± 0.31 | 
CSVWWLWSLRM | 1.13 ± 0.43 | 
DIIRMGFRPFWQGVCVRLSY | -0.669 ± 0.63 | 
DRCWMCLEAALQVAACVGSG |  | inactive
CIMRMTFTMITYCNSLSLGS |  | inactive
LSVLFCLDGK |  | inactive
